Numbering of substitutions follows the chain as printed.
Legend:
[1] = target: T1, Gal4 binding domain alone (pGBT1) (UniProt P04386 1-147); assay: yeast two-hybrid, lacZ activity
T1 construct: Control

[2] = target: T2, SNF1 fused with the Gal4 binding domain (pBD-SNF1) (UniProt P04386 1-147; P06782 1-633); assay: yeast two-hybrid, lacZ activity
T2 construct: Control plasmid, bought

[3] = target: Tobacco vein mottling virus capsid protein (TVMV CP), Gal4 binding domain fusion (Tobacco vein mottling virus, UniProt P04386 1-147; P09814 2759-3023); assay: yeast two-hybrid, HIS3 and lacZ reporters
[4] = target: T3, Potato virus Y capsid protein (PVY CP) fused with the Gal4 binding domain (Potato virus Y (N strain), UniProt P04386 1-147; P18247 2797-3063); assay: yeast two-hybrid, lacZ reporter
T3 construct: also called pGBT9-PVY CP; PVY envelope protein

[5] = target: T3, Potato virus Y capsid protein (PVY CP) …; assay: yeast two-hybrid, lacZ activity

B1: NtCPIP1 (DnaJ-like protein from Nicotiana tabacum) fused with the Gal4 activation domain (other)
chain: MGVDYYKILKVSRNASEEDLKKSYKRLAMKWHPDKNSEKEAEAKFKQISEAYDVLSDPQKRQIYDIYGDEALKSGQFDPSSPMNGNGRGFKFDSRDAEDIFAEFFGGSDGYSRSPTGGTVRIRKPAPVENKLPCSLEELYKGSKRKMKISRIVLDVTGKPTTIEEVLAIHIKPGWKKGTKITFPEKGNHEPGAAPGDLIFVIDEKPHDVFKRDGNDLVINQKISLVDALSGKIINLATLDGRELTIPITDVVKPGHEQIIADEGMPISKEPGKKGNLRIKFEVKFPSRLSSDQKLDIRRVLGRTVD
notes: also called pAD-CPIP1
Question: What does the source list for B1?
Answer: binding result [1]: no binding; binding result [2]: no binding; binding result [3]: no binding

B2: NtCPIP2a Δ94N, Gal4 activation domain fusion (other)
chain: RFNTRDAEAIFAEFFGGSGSNSGAGVGRKAAPVENKLPCSLEELYKGSRRKMKISRILLDDSGKPTTVEEVLAIHIKPGWKKGTKITFPEKGNYEPGATPGDLIFVIDEKPHAVFKRDGNDLEINQKISLLDALTGKTISLITLDGRELTIPITDIVKPGHEHIIPNEGMPISKERGKKGNLKIKFDIKFPSRLSADQKSDIRRVLCRSAD
Question: Does B2 bind [4]?
Answer: no binding

B3: NtCPIP2a Δ119N, Gal4 activation domain fusion (other)
chain: VGRKAAPVENKLPCSLEELYKGSRRKMKISRILLDDSGKPTTVEEVLAIHIKPGWKKGTKITFPEKGNYEPGATPGDLIFVIDEKPHAVFKRDGNDLEINQKISLLDALTGKTISLITLDGRELTIPITDIVKPGHEHIIPNEGMPISKERGKKGNLKIKFDIKFPSRLSADQKSDIRRVLCRSAD
Question: Does B3 bind [4]?
Answer: no binding

B4: SNF4 fused with the Gal4 activation domain (pAD-SNF4) (other)
chain: MKPTQDSQEKVSIEQQLAVESIRKFLNSKTSYDVLPVSYRLIVLDTSLLVKKSLNVLLQNSIVSAPLWDSKTSRFAGLLTTTDFINVIQYYFSNPDKFELVDKLQLDGLKDIERALGVDQLDTASIHPSRPLFEACLKMLESRSGRIPLIDQDEETHREIVVSVLTQYRILKFVALNCRETHFLKIPIGDLNIITQDNMKSCQMTTPVIDVIQMLTQGRVSSVPIIDENGYLINVYEAYDVLGLIKGGIYNDLSLSVGEALMRRSDDFEGVYTCTKNDKLSTIMDNIRKARVHRFFVVDDVGRLVGVLTLSDILKYILLGSN
Question: Does B4 bind [5]?
Answer: no binding

B5: NtCPIP2a (DnaJ-like protein from Nicotiana tabacum), Gal4 activation domain fusion (other)
chain: MGLDYYNVLKVSRNASEEDLKRSYKRLAMKWHPDKNSQNKKEAEAKFKQISEAYDVLSDPQKRQIYDVYGDDALKSGQFASASPTSAGSNARGFRFNTRDAEAIFAEFFGGSGSNSGAGVGRKAAPVENKLPCSLEELYKGSRRKMKISRILLDDSGKPTTVEEVLAIHIKPGWKKGTKITFPEKGNYEPGATPGDLIFVIDEKPHAVFKRDGNDLEINQKISLLDALTGKTISLITLDGRELTIPITDIVKPGHEHIIPNEGMPISKERGKKGNLKIKFDIKFPSRLSADQKSDIRRVLCRSAD
Question: Does B5 bind [3]?
Answer: no binding

B6: NtCPIP2b (DnaJ-like protein from Nicotiana tabacum), Gal4 activation domain fusion (other)
chain: B5 chain with N7D, A91G, G113D, G117A, E217V, I250V, S303N, A304S
Question: Does B6 bind [3]?
Answer: no binding

B7: NtCPIP1 Δ115N, Gal4 activation domain fusion (other)
chain: TGGTVRIRKPAPVENKLPCSLEELYKGSKRKMKISRIVLDVTGKPTTIEEVLAIHIKPGWKKGTKITFPEKGNHEPGAAPGDLIFVIDEKPHDVFKRDGNDLVINQKISLVDALSGKIINLATLDGRELTIPITDVVKPGHEQIIADEGMPISKEPGKKGNLRIKFEVKFPSRLSSDQKLDIRRVLGRTVD
Question: Does B7 bind [4]?
Answer: no binding
